Values quoted from earlier work as cited in publication PMC5393932.

Molecular target: P-selectin (Homo sapiens) (UniProt P16109)
UniProt P16109, sequence (P16109 42-771): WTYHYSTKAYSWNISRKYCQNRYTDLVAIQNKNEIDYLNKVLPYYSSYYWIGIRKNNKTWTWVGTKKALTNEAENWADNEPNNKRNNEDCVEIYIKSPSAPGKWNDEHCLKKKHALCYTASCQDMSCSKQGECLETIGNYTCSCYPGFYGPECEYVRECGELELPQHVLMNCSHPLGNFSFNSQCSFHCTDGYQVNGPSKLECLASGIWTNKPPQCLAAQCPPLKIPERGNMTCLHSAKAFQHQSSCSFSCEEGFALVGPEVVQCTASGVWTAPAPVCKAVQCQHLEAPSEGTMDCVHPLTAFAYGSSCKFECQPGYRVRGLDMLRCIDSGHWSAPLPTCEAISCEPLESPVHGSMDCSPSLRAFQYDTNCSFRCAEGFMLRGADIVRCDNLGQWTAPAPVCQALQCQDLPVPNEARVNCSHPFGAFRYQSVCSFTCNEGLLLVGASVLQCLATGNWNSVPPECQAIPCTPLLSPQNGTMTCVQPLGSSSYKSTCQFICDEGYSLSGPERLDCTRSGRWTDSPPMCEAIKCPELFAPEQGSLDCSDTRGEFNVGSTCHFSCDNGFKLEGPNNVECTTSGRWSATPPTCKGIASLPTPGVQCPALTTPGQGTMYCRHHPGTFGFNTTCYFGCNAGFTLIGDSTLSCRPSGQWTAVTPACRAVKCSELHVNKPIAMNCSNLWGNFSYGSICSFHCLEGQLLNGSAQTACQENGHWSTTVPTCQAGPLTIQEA

Kd: 70 nM
Substance: PSGL-1 (from UniProt Q14242)
